Publication PMC6238587, “Molecular analysis of human Ero1 reveals novel regulatory mechanisms for oxidative protein folding” (Life Science Alliance, 2018)
Where a chain is given by its changes, count along the chain named. Numbers in names are those of the source.

T1: human Ero1β C100/130A, N-terminal His tag (human, UniProt Q86YB8 34-467, D129V | H465Q | C100/130A | C100/130A)
T1 construct: human Ero1β, mature, residues Q34-R467, natural D129V and H465Q variant; also called CCAA (h.a.); source: E. coli BL21(DE3)ΔtrxAΔtrxC with CyDisCo (Erv1p, PDI) co-expressed; in lysate, and purified
T1 sequence (looked up): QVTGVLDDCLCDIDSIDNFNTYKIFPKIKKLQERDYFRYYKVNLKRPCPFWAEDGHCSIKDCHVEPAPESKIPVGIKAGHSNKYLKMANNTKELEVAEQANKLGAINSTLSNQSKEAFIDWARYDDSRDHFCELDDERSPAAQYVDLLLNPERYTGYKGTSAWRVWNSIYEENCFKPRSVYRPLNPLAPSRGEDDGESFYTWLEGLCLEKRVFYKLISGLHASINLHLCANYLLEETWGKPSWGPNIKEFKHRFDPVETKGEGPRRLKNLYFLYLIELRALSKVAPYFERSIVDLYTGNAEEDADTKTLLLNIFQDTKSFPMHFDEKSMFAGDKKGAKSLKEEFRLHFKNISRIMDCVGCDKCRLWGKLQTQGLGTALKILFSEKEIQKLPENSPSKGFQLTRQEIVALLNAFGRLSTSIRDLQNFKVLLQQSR

T2: human Ero1α C104A/C131A, N-terminal His tag (human, UniProt Q96HE7 24-468, C104A | C131A)
T2 construct: human Ero1α, mature, residues E24-H468; also called CCAA (h.a.); source: E. coli BL21(DE3)ΔtrxAΔtrxC with CyDisCo (Erv1p, PDI) co-expressed; in lysate, and purified
T2 sequence (looked up): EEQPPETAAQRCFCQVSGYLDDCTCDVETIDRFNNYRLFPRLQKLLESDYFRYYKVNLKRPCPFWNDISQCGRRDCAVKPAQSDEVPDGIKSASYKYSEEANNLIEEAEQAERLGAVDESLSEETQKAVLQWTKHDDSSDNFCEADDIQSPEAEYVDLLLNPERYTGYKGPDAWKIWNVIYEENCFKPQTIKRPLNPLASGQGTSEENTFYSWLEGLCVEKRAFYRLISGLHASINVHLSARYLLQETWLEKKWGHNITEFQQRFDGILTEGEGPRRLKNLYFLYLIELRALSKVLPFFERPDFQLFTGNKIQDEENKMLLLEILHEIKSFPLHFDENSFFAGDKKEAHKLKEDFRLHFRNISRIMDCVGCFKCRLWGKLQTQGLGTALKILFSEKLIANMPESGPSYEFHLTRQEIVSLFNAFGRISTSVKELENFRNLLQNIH

B1: human PDI, wild type, non-tagged, purified (enzyme)
chain: not shown
B2: human PDIp, non-tagged (enzyme, UniProt Q13087 22-525, looked up)
chain: QEQGARSPSEEPPEEEIPKEDGILVLSRHTLGLALREHPALLVEFYAPWCGHCQALAPEYSKAAAVLAAESMVVTLAKVDGPAQRELAEEFGVTEYPTLKFFRNGNRTHPEEYTGPRDAEGIAEWLRRRVGPSAMRLEDEAAAQALIGGRDLVVIGFFQDLQDEDVATFLALAQDALDMTFGLTDRPRLFQQFGLTKDTVVLFKKFDEGRADFPVDEELGLDLGDLSRFLVTHSMRLVTEFNSQTSAKIFAARILNHLLLFVNQTLAAHRELLAGFGEAAPRFRGQVLFVVVDVAADNEHVLQYFGLKAEAAPTLRLVNLETTKKYAPVDGGPVTAASITAFCHAVLNGQVKPYLLSQEIPPDWDQRPVKTLVGKNFEQVAFDETKNVFVKFYAPWCTHCKEMAPAWEALAEKYQDHEDIIIAELDATANELDAFAVHGFPTLKYFPAGPGRKVIEYKSTRDLETFSKFLDNGGVLPTEEPPEEPAAPFPEPPANSTMGSKEEL
B3: human protein disulfide isomerase (PDI), wild type, co-expressed CyDisCo component (enzyme)
chain: not shown
notes: human PDI, wild-type codon-optimized gene of the CyDisCo plasmid pMJS205; also called wild-type PDI; source: E. coli BL21(DE3)ΔtrxAΔtrxC, co-expressed with Ero1 from pMJS205; in lysate, and co-purified with His-tagged Ero1
B4: human PDI with three consecutive FLAG tag sequences inserted before the ER retention signal, non-His-tagged (enzyme)
chain: not shown
notes: human PDI, mature, codon-optimized; residues after the TEV site probably stay on the protein; also called PDI3FLAG; source: E. coli, purified (cobalt IMAC, TEV protease cleavage, anion exchange); not shown: 3xFLAG, internal (after residue 503), kept; His6, N-terminal, cleaved
B5: human Ero1α, wild type, N-terminal His tag (E24-H468) (enzyme, UniProt Q96HE7 24-468, looked up)
chain: T2 sequence (looked up) with A81C, A108C
modifications: (phospho)gluconoylation of the N-terminal His tag, gluconoylated species the major state
notes: human Ero1α, mature, residues E24-H468; With co-expressed PDI it purifies as a heterodimer; also called endoplasmic reticulum oxidoreductin 1 alpha; CCCC; source: E. coli BL21(DE3)ΔtrxAΔtrxC with CyDisCo components co-expressed; in lysate, and purified (cobalt IMAC, anion exchange, size exclusion)
B6: human Ero1β, wild type, N-terminal His tag (Q34-R467, natural D129V and H465Q variant) (enzyme, UniProt Q86YB8 34-467, looked up)
chain: T1 sequence (looked up) with A67C, A97C
modifications: (phospho)gluconoylation of the N-terminal His tag, gluconoylated species the major state
notes: human Ero1β, mature, residues Q34-R467, natural D129V and H465Q variant; With co-expressed PDI it purifies as a heterodimer; also called CCCC; source: E. coli BL21(DE3)ΔtrxAΔtrxC with CyDisCo components co-expressed; in lysate, and purified (cobalt IMAC, anion exchange, size exclusion)

What was measured:
[1] = biological target: His-tagged Ero1β–PDI heterodimer (human, UniProt Q86YB8 34-467; P07237 18-508, D129V | H465Q, (phospho)gluconoylation of the N-terminal His tag, gluconoylated species the major state); experiment: cell-based or functional assay
[2] = biological target: His-tagged Ero1α–PDI heterodimer (human, UniProt Q96HE7 24-468; P07237 18-508, (phospho)gluconoylation of the N-terminal His tag, gluconoylated species the major state); experiment: cell-based or functional assay
[3] = biological target: B6; experiment: pull-down; His-tagged Ero1 co-expressed with untagged PDI (CyDisCo) in E. coli; large-scale purification by cobalt IMAC, anion exchange and size-exclusion chromatography; SDS–PAGE; details: partners not purified
[4] = biological target: B5; experiment: as above; details: partners not purified
[5] = biological target: T1, human Ero1β C100/130A, N-terminal His …; experiment: as above; details: partners not purified
[6] = biological target: T2, human Ero1α C104A/C131A, N-terminal His …; experiment: as above; details: partners not purified
[7] = biological target: B6; experiment: pull-down; PDI exchange assay: 1 μM His-tagged Ero1–PDI heterodimer with non-His-tagged PDI, PDI3FLAG or other PDI family member (1:1 or 10:1), 1 h at RT, 20 mM sodium phosphate pH 7.3, 150 mM NaCl; Ni-NTA spin columns with 10 mM imidazole; reducing SDS–PAGE; details: both partners purified
[8] = biological target: B5; experiment: as above; details: both partners purified
[9] = biological target: B4; experiment: pull-down; PDI exchange assay with the redox state of both components fixed by GSSG before mixing; details: both partners purified
[10] = biological target: B1; experiment: pull-down; PDI exchange assay: 1 μM His-tagged Ero1–PDI heterodimer with non-His-tagged PDI, PDI3FLAG or other PDI family member (1:1 or 10:1), 1 h at RT, 20 mM sodium phosphate pH 7.3, 150 mM NaCl; Ni-NTA spin columns with 10 mM imidazole; reducing SDS–PAGE; details: both partners purified

Sequence of His-tagged Ero1β–PDI heterodimer (P07237 18-508, stated change not applied, one chain of several): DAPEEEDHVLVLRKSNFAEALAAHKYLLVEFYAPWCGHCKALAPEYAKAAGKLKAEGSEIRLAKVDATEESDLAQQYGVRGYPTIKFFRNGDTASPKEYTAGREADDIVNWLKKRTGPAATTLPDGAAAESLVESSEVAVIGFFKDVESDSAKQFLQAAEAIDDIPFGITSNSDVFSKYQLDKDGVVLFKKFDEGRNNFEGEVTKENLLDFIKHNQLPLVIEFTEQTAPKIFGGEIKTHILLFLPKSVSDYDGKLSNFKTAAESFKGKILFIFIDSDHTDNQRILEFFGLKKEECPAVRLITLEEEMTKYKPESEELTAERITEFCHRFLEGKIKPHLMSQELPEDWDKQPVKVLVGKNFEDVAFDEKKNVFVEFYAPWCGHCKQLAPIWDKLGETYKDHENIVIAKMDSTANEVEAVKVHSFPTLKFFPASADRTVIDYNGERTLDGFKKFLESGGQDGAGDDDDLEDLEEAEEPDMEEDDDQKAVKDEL
Sequence of His-tagged Ero1α–PDI heterodimer (P07237 18-508, one chain of several): as the sequence (P07237 18-508, stated change not applied, one chain of several) above

## B1
[1]
  acceleration of kcat of oxygen consumption by 10 μM external PDI: 4.8 fold
[2]
  acceleration of kcat of oxygen consumption by 10 μM external PDI: 7.1 fold

## B2
[1]
  acceleration of kcat of oxygen consumption by 10 μM external PDIp: 3.7 fold

## B3
[3]
  stoichiometry N: ~1 PDI per Ero1
[4]
  stoichiometry N: ~1 PDI per Ero1
[5]
  stoichiometry N: 1 PDI per Ero1
[6]
  stoichiometry N: 1 PDI per Ero1

## B4
[7]
  ratio of co-purified PDI3FLAG to wild-type PDI (PDI3FLAG added 1:1): ~1 PDI3FLAG per wild-type PDI
  wild-type PDI left in the complex with 10-fold PDI3FLAG, percent of the original: ~10%
[8]
  ratio of co-purified PDI3FLAG to wild-type PDI (PDI3FLAG added 1:1): ~1 PDI3FLAG per wild-type PDI
  wild-type PDI left in the complex with 10-fold PDI3FLAG, percent of the original: ~10%

## B5
[9]
  binding result: binds
[10]
  binding result: binds

## B6
[9]
  binding result: binds
[10]
  binding result: binds
